For the first assay, the target named is T1, amphyphisin SH3 (AMPH_HUMAN), P49418.
T1 chain: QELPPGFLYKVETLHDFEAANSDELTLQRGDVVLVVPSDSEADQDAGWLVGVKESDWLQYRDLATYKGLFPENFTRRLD
The assay can be described thus: SPOT array.
With RPAVLPRPEKPQLP [P78314 398-411], the normalised SPOT signal, Boehringer light units (BLU); mean over the file's lines of this peptide was determined as 197.
The same measure, in the same setting: the figure for RPALPGRPPQVAEQ [BAC05290 145-159] is 54.8; for RPPFLSRPARGLYS [Q16512 357-370] it is 774.
With RLNWLGRPSKVLSL [O00407 179-192], the normalised SPOT signal, Boehringer light units (BLU); mean over the file's lines of this peptide turned out to be 213.
Still for that read-out and setting: the figure for RPAPPQRPPPPSGA [O43426 1118-1132] is 1990; for RPPNLKRPEDYEAV [O75992 403-416] it is 12; for RLKTLRRPRVRDRL [Q9NRC6 2111-2124] it is 35.2.
Still for that read-out and setting: in the case of RLRHLRRPRVARLL [Q9H1C0 128-141] it was 15.2.
The same measure, in the same setting: the figure for RNPVLRRPPILEDY [Q96S08 361-374] is 29.1.
The molecule RLIAISRPLRYVTV [P58180 122-135] registered a normalised SPOT signal, Boehringer light units (BLU); mean over the file's lines of this peptide of 4460.
As for RLLPPQRPGKSQRV [Q9UJS3 337-350], the normalised SPOT signal, Boehringer light units (BLU); mean over the file's lines of this peptide worked out at 2730.
Still for that read-out and setting: the figure for RPNPLRRPLNRKRA [Q96CZ1 23-36] is 156; for RPPPPAKPPPDEEE [Q92625 451-465] it is 32.4; for RLTSPLRPPEGVRL [O75467 160-174] it is 235.
Same read-out and setting: in the case of RLYSIHRPSKQSLN [P55001 106-119] it was 37.2.
The same measure, in the same setting: the figure for AVAVPRRPRAGAER [O94839 5-18] is 106; for RMKRPFRPPPAHFQ [P58012 147-161] it is 554; for RMLVPGRPVKDATP [O94938 456-469] it is 352.
For the molecule RPPPPRRPQGPPPP [Q04118 259-272], the normalised SPOT signal, Boehringer light units (BLU); mean over the file's lines of this peptide was 35.7.
For the molecule RLPELKRPSGDQVQ [Q07075 143-156], the normalised SPOT signal, Boehringer light units (BLU); mean over the file's lines of this peptide turned out to be 37.2.
Same read-out and setting: in the case of RPEDPTRPSRFQQQ [O15067 285-298] it was 1830.
Still for that read-out and setting: in the case of RPHAPGRPARGKVQ [Q16439 323-336] it was 3930.
With RPAKPHKPPGSMGL [O60292 677-691], the normalised SPOT signal, Boehringer light units (BLU); mean over the file's lines of this peptide came out at 163.
Still for that read-out and setting: the figure for RPALPGRPPRWLNR [Q8TDZ8 103-117] is 16100.
Still for that read-out and setting: in the case of RLIAPRRPWTLSHV [Q96M18 45-58] it was 1130; in that of RLRLPPKPPPPLQP [Q14296 184-198], 896; in that of RPPGPRRPERGPRG [P08913 304-317], 13300.
The same measure, in the same setting: in the case of AVGPPKRPQPAALE [Q9ULK5 32-45] it was 31.9.

The target in another assay is endophilin SH3 (SH3G2_HUMAN), Q99962. The assay can be described thus: SPOT array.
For RPAVLPRPEKPQLP [P78314 398-411], the normalised SPOT signal, Boehringer light units (BLU); mean over the file's lines of this peptide came to 213.
RPALPGRPPQVAEQ [BAC05290 145-159] came in with a normalised SPOT signal, Boehringer light units (BLU); mean over the file's lines of this peptide of 501.
The same measure, in the same setting: the figure for RPPFLSRPARGLYS [Q16512 357-370] is 1450; for RLNWLGRPSKVLSL [O00407 179-192] it is 270; for RPAPPQRPPPPSGA [O43426 1118-1132] it is 12200.
Consider RPPNLKRPEDYEAV [O75992 403-416], for which the normalised SPOT signal, Boehringer light units (BLU); mean over the file's lines of this peptide worked out at 67.7.
Still for that read-out and setting: in the case of RLKTLRRPRVRDRL [Q9NRC6 2111-2124] it was 32.1; in that of RLRHLRRPRVARLL [Q9H1C0 128-141], 24.3.
The molecule RNPVLRRPPILEDY [Q96S08 361-374] gave a normalised SPOT signal, Boehringer light units (BLU); mean over the file's lines of this peptide of 15.8.
The molecule RLIAISRPLRYVTV [P58180 122-135] showed a normalised SPOT signal, Boehringer light units (BLU); mean over the file's lines of this peptide of 658.
In turn, RLLPPQRPGKSQRV [Q9UJS3 337-350] yielded a normalised SPOT signal, Boehringer light units (BLU); mean over the file's lines of this peptide of 25000.
Regarding RPNPLRRPLNRKRA [Q96CZ1 23-36], the normalised SPOT signal, Boehringer light units (BLU); mean over the file's lines of this peptide was 200.
RPPPPAKPPPDEEE [Q92625 451-465] gave a normalised SPOT signal, Boehringer light units (BLU); mean over the file's lines of this peptide of 89.
Still for that read-out and setting: in the case of RLTSPLRPPEGVRL [O75467 160-174] it was 1040; in that of RLYSIHRPSKQSLN [P55001 106-119], 290.
On the same count and under the same terms, in the case of AVAVPRRPRAGAER [O94839 5-18] it was 256; in that of RMKRPFRPPPAHFQ [P58012 147-161], 5130.
On to RMLVPGRPVKDATP [O94938 456-469], for which the normalised SPOT signal, Boehringer light units (BLU); mean over the file's lines of this peptide turned out to be 2930.
The same measure, in the same setting: the figure for RPPPPRRPQGPPPP [Q04118 259-272] is 3820.
Consider RLPELKRPSGDQVQ [Q07075 143-156], for which the normalised SPOT signal, Boehringer light units (BLU); mean over the file's lines of this peptide was determined as 34.9.
For RPEDPTRPSRFQQQ [O15067 285-298], the normalised SPOT signal, Boehringer light units (BLU); mean over the file's lines of this peptide amounted to 149.
RPHAPGRPARGKVQ [Q16439 323-336] came in with a normalised SPOT signal, Boehringer light units (BLU); mean over the file's lines of this peptide of 1270.
On to RPAKPHKPPGSMGL [O60292 677-691], for which the normalised SPOT signal, Boehringer light units (BLU); mean over the file's lines of this peptide came to 5260.
On the same count and under the same terms, in the case of RPALPGRPPRWLNR [Q8TDZ8 103-117] it was 13400.
Turning to RLIAPRRPWTLSHV [Q96M18 45-58], the normalised SPOT signal, Boehringer light units (BLU); mean over the file's lines of this peptide is 2240.
Same read-out and setting: the figure for RLRLPPKPPPPLQP [Q14296 184-198] is 6030; for RPPGPRRPERGPRG [P08913 304-317] it is 4970.
Same read-out and setting: the figure for AVGPPKRPQPAALE [Q9ULK5 32-45] is 393.

The values are drawn from publication PMC314469, “Protein Interaction Networks by Proteome Peptide Scanning” (PLoS Biology, 2004).
